Residue numbers refer to the chain shown, from its start. Numbers in names are those of the source.
Experiments:
Experiment in all cases: purified protein
Details in all cases: 37 °C
[1] = substrate: NC(=O)CC[C@H](N)C(=O)O
[2] = substrate: NC(=O)C[C@H](N)C(=O)O; type: biochemical, Wolinella succinogenes
[3] = substrate: NC(=O)CC[C@H](N)C(=O)O; type: biochemical, Wolinella succinogenes

B1: WoA-S121 (Wolinella succinogenes L-asparaginase) (Wolinella succinogenes DSM 1740) (protein)
chain: MAKPQVTILATGGTIAGSGESSVKSSYSAGAVTVDKLLAAVPAINDLATIKGEQISSIGSQEMTGKVWLKLAKRVNELLAQKETEAVIITHGTDTMEETAFFLNLTVKSQKPVVLVGAMRSGSSMSADGPMNLYNAVNVAINKASTNKGVVIVMNDEIHAAREATKLNTTAVNAFASPNTGKIGTVYYGKVEYFTQSVRPHTLASEFDISKIEELPRVDILYAHPDDTDVLVNAALQAGAKGIIHAGMGNGNPFPLTQNALEKAAKSGVVVARSSRVGSGSTTQEAEVDDKKLGFVATESLNPQKARVLLMLALTKTSDREAIQKIFSTY
notes: recombinant, pET28 vector, E. coli BL21-AI; 330 residues per protomer; tetramer (dimer of dimers)
Km [1]: 380 ± 50 µM
kcat [1]: 1.58 s⁻¹
kcat/Km [1]: 4200 M⁻¹ s⁻¹
Km [2]: 21.7 ± 1.2 µM
kcat [2]: 97.8 ± 1 s⁻¹
kcat/Km [2]: 4.5e+06 ± 250000 M⁻¹ s⁻¹

B2: WoA-S121 (Wolinella succinogenes L-asparaginase) (Wolinella succinogenes DSM 1740; S121P) (protein)
chain: B1 chain with S121P
notes: as for B1
Km [3]: 320 ± 20 µM
kcat [3]: 11.33 ± 0.11 s⁻¹
kcat/Km [3]: 35300 ± 2240 M⁻¹ s⁻¹
Km [2]: 23.6 ± 1.1 µM
kcat [2]: 86.7 ± 0.8 s⁻¹
kcat/Km [2]: 3.7e+06 ± 170000 M⁻¹ s⁻¹

Source: paper PMC5282591, “The differential ability of asparagine and glutamine in promoting the closed/active enzyme conformation rationalizes the Wolinella succinogenes L-asparaginase substrate specificity” (Scientific Reports, 2017)
